In the data set the target is hybrid GFP construct containing the protease cleavage sequence SVPSGCG (SEQ ID NO:21) followed by histidine residues.

B1: Papain (protein)
chain: IPEYVDWRQKGAVTPVKNQGSCGSCWAFSAVVTIEGIIKIRTGNLNEYSEQELLDCDRRSYGCNGGYPWSALQLVAQYGIHYRNTYPYEGVQRYCRSREKGPYAAKTDGVRQVQPYNEGALLYSIANQPVSVVLEAAGKDFQLYRGGIFVGPCGNKVDHAVAAVGYGPNYILIKNSWGTGWGENGYIRIKRGTGNSYGVCGLYTSSFYPVKN
As for B1, the % GFP Released (60 minutes, 37° C.) turned out to be 97%; the Micrograms of GFP Released by Protease (overnight, IMAC beads) was determined as 244 µg; the “averaged GFP signal (instrument signal times dilution factor, four readings)” value is “papain yielded an averaged (over four readings) GFP signal of 282,000”; the “fluorescence units of eluant diluted 20-fold” value is “fluorescence units of 400, 400, and 390, respectively”. In addition, the µg GFP Released by Protease (60 minutes, 37° C.) amounted to 109 µg.

B2: Proteinase K (protein)
chain: AAQTNAPWGLARISSTSPGTSTYYYDESAGQGSCVYVIDTGIEASHPEFEGRAQMVKTYYYSSRDGNGHGTHCAGTVGSRTYGVAKKTQLFGVKVLDDNGSGQYSTIIAGMDFVASDKNNRNCPKGVVASLSLGGGYSSSVNSAAARLQSSGVMVAVAAGNNNADARNYSPASEPSVCTVGASDRYDRRSSFSNYGSVLDIFGPGTSILSTWIGGSTRSISGTSMATPHVAGLAAYLMTLGKTTAASACRYIADTANKGDLSNIPFGTVNLLAYNNYQA
Turning to B2, the Micrograms of GFP Released by Protease (overnight, IMAC beads) is 94 µg.

B3: Purified Bromelain (protein)
chain: AVPQSIDWRDYGAVTSVKNQNPCGACWAFAAIATVESIYKIKKGILEPLSEQQVLDCAKGYGCKGGWEFRAFEFIISNKGVASGAIYPYKAAKGTCKTDGVPNSAYITGYARVPRNNESSMMYAVSKQPITVAVDANANFQYYKSGVFNGPCGTSLNHAVTAIGYGQDSIIYPKKWGAKWGEAGYIRMARDVSSSSGICGIAIDPLYPTLEE
With B3, the % GFP Released (60 minutes, 37° C.) stood at 98%; the Micrograms of GFP Released by Protease (overnight, IMAC beads) was determined as 35 µg; the “averaged GFP signal (instrument signal times dilution factor, four readings)” value was “bromelain yielded a averaged (over four readings) GFP signal of 281,500”; the “fluorescence units of eluant diluted 20-fold” value was “fluorescence units of 400, 400, and 390, respectively”. Further, the µg GFP Released by Protease (60 minutes, 37° C.) was 109 µg.

(Values after patent publication US20080241867.)
